Assay results: patent publication US20260337278 (published 2026)
Where two headings read alike, the source gives them in different places.

Experiments:
Assay in all cases: BLI
[1] = molecular target: T1, EGFR (wild-type, His-tagged or biotinylated) (human, UniProt P00533)
EGFRvIII [2] = molecular target: T2, EGFRvIII (human, UniProt P00533)
[3] = molecular target: T1, EGFR (wild-type, His-tagged or …); remark: listed apart in the source
EGFRvIII [4] = molecular target: T2, EGFRvIII; remark: listed apart in the source
EGFRvIII [5] = molecular target: T2, EGFRvIII; remark: listed apart in the source

| Kd (EGFRvIII [5]) | Binder | further results |
| --- | --- | --- |
| – | SI-95X55 (antibody) chain 1: not shown chain 2: DIVMTQSPSSVSLSLGDRVTITCHSSQDINSNIGWLQQKPGKAFKGLIYHGTNLDDGVPSRFSGSGSGADYTLTISSLQAEDFATYYCVQYAQFPWTFGPGTKLEIKRTVAAPSVFIFPPSDEQLKSGTASVVCLLNNFYPREAKVQWKVDNALQSGNSQESVTEQDSKDSTYSLSSTLTLSKADYEKHKVYACEVTHQGLSSPVTKSFNRGEC | binding result [1]: no binding; Kd (EGFRvIII [2]): 7.67 nM |
| – | SI-95X41 (antibody) chain 1: not shown chain 2: DILMTQSPSSMSVSLGDTVSITCHSSQDINSNIGWLQQRPGKSFKGLIYHGTNLDDEVPSRFSGSGSGADYSLTISSLESEDFADYYCVQYAQFPWTFGGGTKLEIKRTVAAPSVFIFPPSDEQLKSGTASVVCLLNNFYPREAKVQWKVDNALQSGNSQESVTEQDSKDSTYSLSSTLTLSKADYEKHKVYACEVTHQGLSSPVTKSFNRGEC | binding result [1]: no binding; Kd (EGFRvIII [2]): 15.9 nM |
| – | SI-95X2 (antibody) chain 1: not shown chain 2: DIQMTQSPSSLSASVGDRVTITCRSSQNIVHSNGNTYLDWYQQTPGKAPKLLIYKVSNRFSGVPSRFSGSGSGTDFTFTISSLQPEDIATYYCFQYSHVPWTFGQGTKLQITRTVAAPSVFIFPPSDEQLKSGTASVVCLLNNFYPREAKVQWKVDNALQSGNSQESVTEQDSKDSTYSLSSTLTLSKADYEKHKVYACEVTHQGLSSPVTKSFNRGEC | Kd [3]: 5.53 nM; Kd (EGFRvIII [4]): 1.15 nM |
| 37.8 nM | ABT-806 V7 (antibody, V domains shown) VH: QVQLQESGPSLVKPSQTLSLTCTVSGYSITSDFAWNWIRQFPGRKLEWMGYISYSGNTRYNPSLKSRFTISRDTSKNQFYLKLRSVTIADTAVYYCVTAGRGFPYWGQGTLVTVSS VL: DIQMTQSPSSVSASVGDRVTITCHSSQDINSNIGWLQQKPGKAPKGLIYHGTNLDDGVPSRFSGSGSGADYTLTISSLQPEDFATYYCVQYAQFPWTFGQGTKVEIKR | – |
| 18.4 nM | ABT-806 V6 (antibody, V domains shown) VH: QVQLQESGPGLVKPSQSLSLTCTVSGYSITSDFAWNWIRQAPGKGLEWVGYISYSGNTRYNPSLKSRFTISRDTSKNQFYLQLNSVTAEDTAVYYCVTAGRGFPYWGQGTLVTVSS VL: DIVMTQSPSSVSLSLGDRVTITCHSSQDINSNIGWLQQKPGKAFKGLIYHGTNLDDGVPSRFSGSGSGADYTLTISSLQAEDFATYYCVQYAQFPWTFGPGTKLEIKR | – |
| 30.7 nM | ABT-806 V5 (antibody, V domains shown) VH: QVQLQESGPGLVKPSQSLSLTCTVSGYSITSDFAWNWIRQAPGKGLEWVGYISYSGNTRYNPSLKSRFTISRDTSKNQFYLQLNSVTAEDTAVYYCVTAGRGFPYWGQGTLVTVSS VL: DIVMTQSPSSLSVSPGDRVTITCHSSQDINSNIGWLQQKPGKAPKGLIYHGTNLDDGVPSRFSGSGSGADYTLTISSLEPEDFAVYYCVQYAQFPWTFGQGTKVEIKR | – |
| 15.4 nM | ABT-806 V3 (antibody, V domains shown) VH: QVQLQESGPGLVKPSQSLSLTCTVSGYSITSDFAWNWIRQPPGKGLEWIGYISYSGNTRYNPSLKSRVTISRDTSKNQFSLQLNSVTAEDTAVYYCVTAGRGFPYWGQGTLVTVSS VL: DIVMTQSPSSVSLSLGDRVTITCHSSQDINSNIGWLQQKPGKAFKGLIYHGTNLDDGVPSRFSGSGSGADYTLTISSLQAEDFATYYCVQYAQFPWTFGPGTKLEIKR | – |
| 26.6 nM | ABT-806 V2 (antibody, V domains shown) VH: QVQLQESGPGLVKPSQSLSLTCTVSGYSITSDFAWNWIRQPPGKGLEWIGYISYSGNTRYNPSLKSRVTISRDTSKNQFSLQLNSVTAEDTAVYYCVTAGRGFPYWGQGTLVTVSS VL: DIVMTQSPSSLSVSPGDRVTITCHSSQDINSNIGWLQQKPGKAPKGLIYHGTNLDDGVPSRFSGSGSGADYTLTISSLEPEDFAVYYCVQYAQFPWTFGQGTKVEIKR | – |
| 23.2 nM | ABT-806 V4 (antibody, V domains shown) VH: QVQLQESGPGLVKPSQSLSLTCTVSGYSITSDFAWNWIRQAPGKGLEWVGYISYSGNTRYNPSLKSRFTISRDTSKNQFYLQLNSVTAEDTAVYYCVTAGRGFPYWGQGTLVTVSS VL: DIQMTQSPSSVSASVGDRVTITCHSSQDINSNIGWLQQKPGKAPKGLIYHGTNLDDGVPSRFSGSGSGADYTLTISSLQPEDFATYYCVQYAQFPWTFGQGTKVEIKR | – |
| 31.9 nM | ABT-806 V8 (antibody, V domains shown) VH: QVQLQESGPSLVKPSQTLSLTCTVSGYSITSDFAWNWIRQFPGRKLEWMGYISYSGNTRYNPSLKSRFTISRDTSKNQFYLKLRSVTIADTAVYYCVTAGRGFPYWGQGTLVTVSS VL: DIVMTQSPSSLSVSPGDRVTITCHSSQDINSNIGWLQQKPGKAPKGLIYHGTNLDDGVPSRFSGSGSGADYTLTISSLEPEDFAVYYCVQYAQFPWTFGQGTKVEIKR | – |
| 29.5 nM | ABT-806 V1 (antibody, V domains shown) VH: QVQLQESGPGLVKPSQSLSLTCTVSGYSITSDFAWNWIRQPPGKGLEWIGYISYSGNTRYNPSLKSRVTISRDTSKNQFSLQLNSVTAEDTAVYYCVTAGRGFPYWGQGTLVTVSS VL: DIQMTQSPSSVSASVGDRVTITCHSSQDINSNIGWLQQKPGKAPKGLIYHGTNLDDGVPSRFSGSGSGADYTLTISSLQPEDFATYYCVQYAQFPWTFGQGTKVEIKR | – |
| 16.1 nM | ABT-806 V9 (antibody, V domains shown) VH: QVQLQESGPSLVKPSQTLSLTCTVSGYSITSDFAWNWIRQFPGRKLEWMGYISYSGNTRYNPSLKSRFTISRDTSKNQFYLKLRSVTIADTAVYYCVTAGRGFPYWGQGTLVTVSS VL: DIVMTQSPSSVSLSLGDRVTITCHSSQDINSNIGWLQQKPGKAFKGLIYHGTNLDDGVPSRFSGSGSGADYTLTISSLQAEDFATYYCVQYAQFPWTFGPGTKLEIKR | – |
